Where a SMILES comes first, the peptide text is derived from it. Bridges are numbered along the chain shown (N, C = ends). Where no end group is shown, it is not given here.
T1: α‐FXIIa (Homo sapiens, UniProt P00748)
T1 construct: purchased Enzyme Research Laboratories (Swansea, UK)
T1 sequence (P00748 373-615 limits assumed): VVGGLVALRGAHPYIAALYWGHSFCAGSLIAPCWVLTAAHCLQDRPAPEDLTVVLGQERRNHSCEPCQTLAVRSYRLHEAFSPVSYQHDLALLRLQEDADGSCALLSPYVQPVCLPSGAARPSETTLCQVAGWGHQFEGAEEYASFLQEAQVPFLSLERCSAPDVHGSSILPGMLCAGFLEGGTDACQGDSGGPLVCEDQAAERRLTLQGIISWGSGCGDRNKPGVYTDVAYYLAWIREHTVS
T1 sequence (P00748 20-372 partner limits assumed): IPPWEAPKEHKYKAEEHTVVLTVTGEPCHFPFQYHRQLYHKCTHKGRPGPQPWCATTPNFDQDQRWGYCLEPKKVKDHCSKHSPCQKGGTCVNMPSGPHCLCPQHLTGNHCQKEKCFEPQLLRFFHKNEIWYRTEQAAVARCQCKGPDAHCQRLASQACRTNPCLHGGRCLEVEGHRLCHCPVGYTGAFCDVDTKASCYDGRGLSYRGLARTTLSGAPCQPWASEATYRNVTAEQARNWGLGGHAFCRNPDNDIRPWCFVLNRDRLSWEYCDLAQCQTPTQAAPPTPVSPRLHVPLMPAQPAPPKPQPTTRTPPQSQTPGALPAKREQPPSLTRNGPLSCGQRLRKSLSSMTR


Columns and labels:
α‐FXIIa = target: T1, α‐FXIIa; experiment: α‐FXIIa enzymatic assay (S‐2302 chromogenic substrate cleavage, pNA release); type: biochemical; settings: for pIC50 ± SE / IC50: 33 °C, SE of the fit, n = 3–5 independent experiments; for IC50 (M): IC50 corresponding to the pIC50
Method: The enzymatic activity of α‐FXIIa was measured by monitoring the amount of pNA chromophore released from substrate H‐D‐Pro‐Phe‐Arg‐pNA (S‐2302). Assays were performed in a 100‐μL volume at 33 °C in 96‐well plates in a Perkin Elmer (Seer Green, UK) Envision plate reader, and pNA release was followed over a period of 6 h by reading the absorbance at 405 nm. Absorbance values were converted to pNA concentrations by comparison with a standard curve obtained under exactly the same instrument conditions. All absorbance values were within the linear measurement range of the instrument. Initial rates were calculated on the basis of the first 30 min of incubation. To assess the K M, concentrations of substrate peptide between 0.1 mM and 0.6 mM were incubated with 10 nM α‐FXIIa, enzymatic activity was measured as described above, and data were analyzed by non‐linear regression with the Michaelis–Menten algorithm (GRAPHPAD PRISM, version 6.04). To assess the inhibitory mechanism of CTI, 30 nM CTI was incubated with these same concentrations of substrate peptide, the reaction was initiated by the addition of 10 nM α‐FXIIa, enzymatic activity was measured as described above, and data were analyzed by non‐linear regression with the Michaelis–Menten algorithm (GRAPHPAD PRISM, version 6.04) and by linear regression after Lineweaver–Burk transformation. To assay inhibitors, concentrations of CTI variant proteins between 10^−8 M and 10^−5 M or concentrations of peptides between 10^−6 M and 10^−3 M were incubated with 200 μM substrate peptide, the reaction was initiated by addition of 10 nM α‐FXIIa, enzymatic activity was measured as described above, and IC50 values were determined by non‐linear regression analysis (GRAPHPAD PRISM, version 6.04) using the log[inhibitor] versus response – variable slope algorithm with a bottom constraint.

[1] = target: Full length activated FXIIa (α‐FXIIa) (UniProt P00748)
[2] = synthetic peptides 10^−6 M to 10^−3 M
[3] = synthetic peptides 10^−6 M to 10^−3 M, 200 μM S‐2302, 10 nM α‐FXIIa, initial rate
[4] = synthetic peptides 10^−6 M to 10^−3 M, 200 μM S‐2302, 10 nM α‐FXIIa, initial rate, SEM
[5] = CTI variant proteins 10^−8 M to 10^−5 M, 200 μM S‐2302, 10 nM α‐FXIIa, initial rate of first 30 min, A405, SEM

Molecule	IC50 of inhibition of α‐FXIIa enzymatic activity (S‐2302 cleavage) [1] [µM]	pIC50 of inhibition of α‐FXIIa enzymatic activity (S‐2302 cleavage) [1]	also measured
CC[C@H](C)[C@@H]1NC(=O)CNC(=O)[C@H](C)NC(=O)[C@H]([C@@H](C)O)NC(=O)[C@H](CCCNC(=N)N)NC(=O)[C@H](CO)NC(=O)[C@H]([C@@H](C)O)NC(=O)[C@H](C(C)C)NC(=O)[C@H](Cc2ccc(O)cc2)NC(=O)[C@H](Cc2c[nH]c3ccccc23)NC(=O)[C@H](CCCNC(=N)N)NC(=O)[C@@H](N)CSSC[C@@H](C(=O)O)NC(=O)[C@H](CCCNC(=N)N)NC(=O)[C@H](CCCNC(=N)N)NC(=O)[C@H](CCCCN)NC(=O)[C@H](CC(C)C)NC(=O)[C@H](CCC(=O)O)NC(=O)[C@@H]2CCCN2C(=O)[C@H](Cc2c[nH]c3ccccc23)NC(=O)[C@@H]2CCCN2C(=O)[C@H](CC(C)C)NC(=O)[C@H](CCCNC(=N)N)NC(=O)[C@@H]2CCCN2C(=O)CNC1=O [CTI(20–44)] (H-CRWYVTSRTAGIGPRLPWPELKRRC-OH; disulfide 1-25; N-terminus and C-terminus assumed)	–	–	Fold reduction in inhibitory activity as compared with rec‐CTI (α‐FXIIa; synthetic peptides, relative to recombinant CTI): 2416 fold
glutathione‐S‐transferase [GST, reference compound]	–	–	Inhibition of α‐FXIIa, result in words (α‐FXIIa; 200 μM substrate peptide, 10 nM α‐FXIIa): did not inhibit; pIC50 ± SE (α‐FXIIa; CTI variant proteins 10^−8 M to 10^−5 M, 200 μM S‐2302, 10 nM α‐FXIIa, initial rate of first 30 min, A405): NIA; IC50 (M) (α‐FXIIa; CTI variant proteins 10^−8 M to 10^−5 M, 200 μM S‐2302, 10 nM α‐FXIIa): NIA
IGPRLPWP [CTI(31–38), eight‐mer peptide spanning the loop between helices α1 and α2 (CTI residues 31–38)]	–	–	IC50 (M) (α‐FXIIa; [2]): NIA; pIC50 ± SE (α‐FXIIa; [3]): NIA
YVTSRTAGIGPRLPWPELKRR [CTI(23–43)]	–	–	IC50 (α‐FXIIa; [4]): 1150 µM
RWYVTSRTAGIGPRLPWPELKR [CTI(21–42)]	–	–	IC50 (α‐FXIIa; [4]): 200 µM
RWYVTSRTAGIGPRLPWPELKRR [CTI(21–43)]	–	–	IC50 (α‐FXIIa; [4]): 457 µM
GISTAGPWRRRPPELLKVTY [Scrambled, scrambled control peptide]	–	–	IC50 (M) (α‐FXIIa; [2]): NIA; pIC50 ± SE (α‐FXIIa; [3]): NIA
L35A: rec‐CTI variant, alanine substitution of Leu35 (protein, assayed as His6-GST fusion (tag omitted); disulfides) SAGTSCVPGWAIPHNPLPSCRWYVTSRTCGIGPRAPWPELKRRCCRELADIPAYCRCTALSILMDGAIPPGPDAQLEGRLEDLPGCPREVQRGFAATLVTEAECNLATISGVAECPWILGGGTMPSK	–	–	pIC50 ± SE (α‐FXIIa; [5]): 5.31 ± 0.05
R42A: rec‐CTI variant, alanine substitution of Arg42 (protein, assayed as His6-GST fusion (tag omitted); disulfides) SAGTSCVPGWAIPHNPLPSCRWYVTSRTCGIGPRLPWPELKARCCRELADIPAYCRCTALSILMDGAIPPGPDAQLEGRLEDLPGCPREVQRGFAATLVTEAECNLATISGVAECPWILGGGTMPSK	–	–	pIC50 ± SE (α‐FXIIa; [5]): 6.72 ± 0.15
R27A/R42A: rec‐CTI double substitution R27A/R42A (protein, assayed as His6-GST fusion (tag omitted); disulfides) SAGTSCVPGWAIPHNPLPSCRWYVTSATCGIGPRLPWPELKARCCRELADIPAYCRCTALSILMDGAIPPGPDAQLEGRLEDLPGCPREVQRGFAATLVTEAECNLATISGVAECPWILGGGTMPSK	–	–	pIC50 ± SE (α‐FXIIa; [5]): 6.80 ± 0.05
W22A: rec‐CTI variant, alanine substitution of Trp22 (protein, assayed as His6-GST fusion (tag omitted); disulfides) SAGTSCVPGWAIPHNPLPSCRAYVTSRTCGIGPRLPWPELKRRCCRELADIPAYCRCTALSILMDGAIPPGPDAQLEGRLEDLPGCPREVQRGFAATLVTEAECNLATISGVAECPWILGGGTMPSK	–	–	pIC50 ± SE (α‐FXIIa; [5]): 4.72 ± 0.24
E39A: rec‐CTI variant, alanine substitution of Glu39 (protein, assayed as His6-GST fusion (tag omitted); disulfides) SAGTSCVPGWAIPHNPLPSCRWYVTSRTCGIGPRLPWPALKRRCCRELADIPAYCRCTALSILMDGAIPPGPDAQLEGRLEDLPGCPREVQRGFAATLVTEAECNLATISGVAECPWILGGGTMPSK	–	–	pIC50 ± SE (α‐FXIIa; [5]): 6.85 ± 0.06
W37A: rec‐CTI variant, alanine substitution of Trp37 (protein, assayed as His6-GST fusion (tag omitted); disulfides) SAGTSCVPGWAIPHNPLPSCRWYVTSRTCGIGPRLPAPELKRRCCRELADIPAYCRCTALSILMDGAIPPGPDAQLEGRLEDLPGCPREVQRGFAATLVTEAECNLATISGVAECPWILGGGTMPSK	–	–	pIC50 ± SE (α‐FXIIa; [5]): 6.97 ± 0.06
R42A/R43A: rec‐CTI R42A/R43A double mutant (protein, assayed as His6-GST fusion (tag omitted); disulfides) SAGTSCVPGWAIPHNPLPSCRWYVTSRTCGIGPRLPWPELKAACCRELADIPAYCRCTALSILMDGAIPPGPDAQLEGRLEDLPGCPREVQRGFAATLVTEAECNLATISGVAECPWILGGGTMPSK	–	–	pIC50 ± SE (α‐FXIIa; [5]): 4.98 ± 0.02
R27A/E39A: rec‐CTI double substitution R27A/E39A (protein, assayed as His6-GST fusion (tag omitted); disulfides) SAGTSCVPGWAIPHNPLPSCRWYVTSATCGIGPRLPWPALKRRCCRELADIPAYCRCTALSILMDGAIPPGPDAQLEGRLEDLPGCPREVQRGFAATLVTEAECNLATISGVAECPWILGGGTMPSK	–	–	pIC50 ± SE (α‐FXIIa; [5]): 6.58 ± 0.08

Continued, in another order:

IC50 of inhibition of α‐FXIIa enzymatic activity (S‐2302 cleavage) [1] [µM]	pIC50 of inhibition of α‐FXIIa enzymatic activity (S‐2302 cleavage) [1]	Molecule	also measured
4.9	5.31	rec‐CTI L35A (natural protein)	–
0.14	6.85	rec‐CTI E39A (natural protein)	–
0.19	6.72	rec‐CTI R42A (natural protein)	–
0.11	6.97	rec‐CTI W37A (natural protein)	–
0.17	6.78	rec‐CTI R27A (natural protein)	–
0.48	6.32	rec‐CTI G30W (natural protein)	–
0.16	6.8	rec‐CTI R27A/R42A (natural protein)	–
0.26	6.58	rec‐CTI R27A/E39A (natural protein)	–
13	4.89	rec‐CTI G32W (natural protein)	–
11	4.98	rec‐CTI R42A/R43A (natural protein)	–
0.12	6.94	recombinant CTI (rec‐CTI) (natural protein)	–
19	4.72	rec‐CTI W22A (natural protein)	–

— PMC5638086, “Assessment of the protein interaction between coagulation factor XII and corn trypsin inhibitor by molecular docking and biochemical validation” (Journal of Thrombosis and Haemostasis, 2017)
